Target: DNase I (UniProt P00639)
Assay: cleavage_in_vitro
Settings: 2'-F at all nucleotides; 100 mM NaOAc, 5 mM MgCl2, 37 C, 5 min

Chain of DNase I (P00639 23-282): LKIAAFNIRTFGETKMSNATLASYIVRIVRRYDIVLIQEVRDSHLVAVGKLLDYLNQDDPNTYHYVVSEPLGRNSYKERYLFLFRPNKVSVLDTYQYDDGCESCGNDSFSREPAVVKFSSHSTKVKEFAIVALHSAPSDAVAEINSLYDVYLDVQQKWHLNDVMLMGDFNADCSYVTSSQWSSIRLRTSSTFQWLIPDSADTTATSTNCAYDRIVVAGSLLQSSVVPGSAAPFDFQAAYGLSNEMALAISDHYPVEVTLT

## NNNNNNNNNNNNNNNNNNNNNNNNNNNNNNNNNNNNNNNNCACGAGTGAAGTCTGAGCTCC [BSA-1A FNA library (primer removed)]
  activity (fold more stable than DNA): > 100

From patent US20080070238
